Where two headings read alike, the source gives them in different places. Non-standard residues stand in square brackets, D forms with d. No end group written: not given here. Nle = CCCC[C@H](N)C(=O)O
Tests used:
hVEGF-A (human), P15692 = biological target: T1, hVEGF-A (human), P15692; experiment: cell-based or functional assay
T1 chain: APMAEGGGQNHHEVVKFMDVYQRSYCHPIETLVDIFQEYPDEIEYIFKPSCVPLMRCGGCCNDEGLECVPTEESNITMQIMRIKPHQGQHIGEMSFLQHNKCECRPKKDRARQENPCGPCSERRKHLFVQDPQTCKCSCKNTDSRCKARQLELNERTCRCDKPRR

[1] = biological target: T2, hVEGF-A (8-109) (human), P15692; experiment: spot phage ELISA; details: remark: other sources report otherwise
T2 chain: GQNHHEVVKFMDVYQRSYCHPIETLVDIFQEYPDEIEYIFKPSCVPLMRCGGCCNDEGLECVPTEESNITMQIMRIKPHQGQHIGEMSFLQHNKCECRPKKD

hVEGF-A Q89A = biological target: T3, hVEGF-A Q89A (human, UniProt P15692-4 34-135, Q89A); experiment: SPR
T3 construct: position probably counted on the mature protein
T3 sequence (looked up): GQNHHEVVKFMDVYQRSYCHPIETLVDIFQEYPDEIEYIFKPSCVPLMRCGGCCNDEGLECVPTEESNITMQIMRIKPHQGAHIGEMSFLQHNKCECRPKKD
Experimental: (§1) Depending on the format of the assay either a streptavidin sensor (SA) or a dextran-coated (CM5) sensor was utilized as described below.
(§2) Reaction was then quenched by addition of 10 molar excess of Glycine pH 8.0 and the sample was buffer exchanged into PBS using an Amicon 0.5 mL 3000 MWCO ultra-centrifugal filters (EMD Millipore). The biotinylation state of the protein was verified by LC-MS analysis. Biotinylated VEGF-A was then captured on the surface until a resonance unit (RU) signal of about ˜400. For immobilization of VEGF-A on CM5 sensor, the surface was first activated with a mixture of N-ethyl-N′-(3-dimethylaminopropyl)carbodiimide hydrochloride and N-hydroxysuccinimide (EDC/NHS) according to the supplier instructions. VEGF-A was then diluted into coupling buffer (0.1 M Acetate Buffer, pH 5.0) and injected until the signal reached about ˜400 RU followed by a wash with 1 M ethanolamine pH 8.0 to quench remaining activated sites.

hVEGF-A [2] = biological target: T4, hVEGF-A (human, UniProt P15692-4 27-191, limits assumed); experiment: SPR
T4 construct: also called human VEGF-A; WT
Experimental: as §1, §2

hVEGF-A Y21A = biological target: T5, hVEGF-A Y21A (human, UniProt P15692-4 34-135, Y21A); experiment: SPR
T5 construct: position probably counted on the mature protein
T5 sequence (looked up): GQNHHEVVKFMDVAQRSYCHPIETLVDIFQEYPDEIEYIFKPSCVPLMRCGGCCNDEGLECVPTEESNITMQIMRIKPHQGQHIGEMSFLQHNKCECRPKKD
Experimental: as §1, §2

hVEGF-A K48A = biological target: T6, hVEGF-A K48A (human, UniProt P15692-4 34-135, K48A); experiment: SPR
T6 construct: position probably counted on the mature protein
T6 sequence (looked up): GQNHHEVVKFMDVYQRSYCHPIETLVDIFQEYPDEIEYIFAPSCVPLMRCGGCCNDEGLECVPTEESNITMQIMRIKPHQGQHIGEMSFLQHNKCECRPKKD
Experimental: as §1, §2

hVEGF-A (8-109) [3] = biological target: T7, hVEGF-A (8-109) (human, UniProt P15692 214-315); experiment: SPR
T7 sequence (looked up): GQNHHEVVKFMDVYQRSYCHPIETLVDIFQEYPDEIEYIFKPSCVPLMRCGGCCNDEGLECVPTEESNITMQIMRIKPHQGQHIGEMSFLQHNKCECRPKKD
Experimental: as §1, §2

human VEGF-A 165 = human VEGF-A 165 (human, UniProt P15692-4 27-191); experiment: SPR
Experimental: as §1, §2

mouse VEGF-A 164 = biological target: T8, mouse VEGF-A 164 (mouse, UniProt Q00731-2 27-190); experiment: SPR
T8 construct: also called mouse 164
T8 sequence (looked up): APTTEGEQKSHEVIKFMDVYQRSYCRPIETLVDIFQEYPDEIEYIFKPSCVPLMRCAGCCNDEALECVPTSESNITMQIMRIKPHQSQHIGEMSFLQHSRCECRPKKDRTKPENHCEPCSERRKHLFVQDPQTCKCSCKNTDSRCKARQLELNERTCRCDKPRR
Experimental: as §1, §2

rat VEGF-A = biological target: T9, rat VEGF-A (rat, UniProt P16612-2 27-190, limits assumed); experiment: SPR
T9 construct: also called rVEGF
T9 sequence (looked up): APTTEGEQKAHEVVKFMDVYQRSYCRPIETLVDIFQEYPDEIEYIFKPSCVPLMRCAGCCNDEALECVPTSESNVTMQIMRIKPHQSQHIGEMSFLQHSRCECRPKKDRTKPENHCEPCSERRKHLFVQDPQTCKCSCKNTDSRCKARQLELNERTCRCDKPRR
Experimental: as §1, §2

rabbit VEGF-A = biological target: T10, rabbit VEGF-A (rabbit, UniProt G1T1L9 1-398); experiment: SPR
T10 sequence: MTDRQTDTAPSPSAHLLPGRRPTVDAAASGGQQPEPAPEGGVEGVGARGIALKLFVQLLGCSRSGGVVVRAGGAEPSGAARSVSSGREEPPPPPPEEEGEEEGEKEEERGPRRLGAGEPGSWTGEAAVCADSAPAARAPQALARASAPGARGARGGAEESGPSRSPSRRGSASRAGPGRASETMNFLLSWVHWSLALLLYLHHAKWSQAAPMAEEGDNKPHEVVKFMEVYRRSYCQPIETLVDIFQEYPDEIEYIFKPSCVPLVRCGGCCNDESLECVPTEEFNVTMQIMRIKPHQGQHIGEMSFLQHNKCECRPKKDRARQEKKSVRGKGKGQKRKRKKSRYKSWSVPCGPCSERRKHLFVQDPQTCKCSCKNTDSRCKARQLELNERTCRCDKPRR
Experimental: as §1, §2

hVEGF-A [4] = biological target: T4, hVEGF-A; experiment: SPR; remark: listed apart in the source
Experimental: as §1, §2

hVEGF-A (8-109) [5] = biological target: T7, hVEGF-A (8-109); experiment: spot phage ELISA
Experimental: After four rounds of binding selection, individual phage clones were picked and inoculated into 450 μl 2YT media containing 50 µg/ml Carbenecillin and M13-KO7 helper phage in 96-well blocks, which were grown at 37° C. overnight. […] The plates were washed and bound phage was detected with anti-M13-HRP followed by TMB substrate. In these assays, phage binding to BSA alone was tested in parallel to assess background binding. […] Positive clones were subjected to DNA sequence analysis.

hVEGF-A [6] = biological target: T4, hVEGF-A; experiment: cell-based or functional assay
hVEGF-A [7] = biological target: T4, hVEGF-A; experiment: cell-based or functional assay; remark: listed apart in the source
hVEGF-A [8] = biological target: T4, hVEGF-A; experiment: KDR-VEGF competition ELISA
hVEGF-A [9] = biological target: T4, hVEGF-A; experiment: phage competition ELISA, soluble CKP
hVEGF-A (8-109) [10] = biological target: T7, hVEGF-A (8-109); experiment: phage competition ELISA (clone on phage; the concentration varied on the axis is that of hVEGF (8-109))

EETI-II, sequence (chain, as listed by the source): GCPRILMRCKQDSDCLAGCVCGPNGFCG

trypsin
trypsin protease activity, peptide substrate cleavage assay (EETI-II): Unlike EETI-II, ... do not inhibit trypsin protease activity

B1: 9.54.90.M5.Nle (designed binder)
chain: GCNI[Nle]LPFWGCGRDFECLAGCVCQYYQSCG
modifications: cysteine pairing not given here
Cellular IC50 (hVEGF-A (human), P15692): 1.95 nM

B2: VEGF_CKP9.22 (designed binder)
chain: GCQRTQPFWGCKQDSDCLAGCVCRWYQSCG
ELISA [1]: 1.2
S/N vs BSA [1]: 17.2

B3: VEGF_CKP9.54 (designed binder)
chain: GCNIMLPFWGCKQDSDCLAGCVCQYYQSCG
notes: also called EM54
Kd (hVEGF-A Q89A): 1880 nM
Kd (hVEGF-A [2]): 55 nM
Kd (hVEGF-A Y21A): 317 nM
Kd (hVEGF-A K48A): 22 nM
Kd (hVEGF-A (8-109) [3]): 176 nM
kon (hVEGF-A (8-109) [3]): 1.26e+06 M⁻¹ s⁻¹
Kd (human VEGF-A 165): 190 nM
Kd (mouse VEGF-A 164): 250 nM
Kd (rat VEGF-A): 176 nM
Kd (rabbit VEGF-A): 133 nM
Kd (hVEGF-A [4]): 44 nM
ELISA (hVEGF-A (8-109) [5]): 2.1
S/N vs BSA (hVEGF-A (8-109) [5]): 28.4
Cellular IC50 (hVEGF-A [6]): 188 nM
Cellular IC50 (hVEGF-A [7]): 188 nM
IC50 (hVEGF-A [8]): 5.8 nM
IC50 (hVEGF-A [9]): 450 nM
IC50 (read off the curve) (hVEGF-A (8-109) [10]): ~4 nM
